Values joined by “and” are separate entries in the source; they are usually repeats but may differ in a detail not shown here. Equal values may be shown once.
Assays:
human IgE [1] = biological target: T1, human IgE (human, UniProt P01854); experiment: competition ELISA
T1 chain: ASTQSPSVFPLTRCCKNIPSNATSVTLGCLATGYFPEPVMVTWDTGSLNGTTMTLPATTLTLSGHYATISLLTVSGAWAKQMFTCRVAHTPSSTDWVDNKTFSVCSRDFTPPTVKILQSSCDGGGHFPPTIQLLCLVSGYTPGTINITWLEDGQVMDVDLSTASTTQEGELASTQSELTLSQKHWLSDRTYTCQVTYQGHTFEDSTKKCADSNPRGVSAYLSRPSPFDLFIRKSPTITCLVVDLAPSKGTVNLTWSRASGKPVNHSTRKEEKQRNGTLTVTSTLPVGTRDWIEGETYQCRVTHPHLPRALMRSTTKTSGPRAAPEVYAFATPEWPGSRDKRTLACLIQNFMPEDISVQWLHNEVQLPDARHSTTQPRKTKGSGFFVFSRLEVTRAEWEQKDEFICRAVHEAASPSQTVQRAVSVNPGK

human IgE [2] = biological target: T1, human IgE; experiment: ELISA, pH 5.5
human IgE [3] = biological target: T1, human IgE; experiment: ELISA, pH 7.4
human IgE [4] = biological target: T1, human IgE; experiment: SPR, pH 7.4
human IgE [5] = biological target: T1, human IgE; experiment: SPR, pH 6.0
human IgE [6] = biological target: T1, human IgE; experiment: SPR
human IgE [7] = biological target: T1, human IgE; experiment: competition SPR, pH 7.4
human IgE [8] = biological target: T1, human IgE; experiment: competition ELISA, pH 7.4
human IgE [9] = biological target: T1, human IgE; experiment: competition SPR, pH 6.0
human IgE [10] = biological target: T1, human IgE; experiment: competition ELISA, pH 6.0
human IgE [11] = biological target: T1, human IgE; experiment: competition SPR, pH 6.0
human IgE [12] = biological target: T1, human IgE; experiment: competition SPR, pH 7.4
human IgE [13] = biological target: T1, human IgE; experiment: competition ELISA, pH 6.0
human IgE [14] = biological target: T1, human IgE; experiment: competition ELISA, pH 7.4
human IgE [15] = biological target: T1, human IgE; experiment: competition SPR, pH 7.4
human IgE [16] = biological target: T1, human IgE; experiment: competition SPR, pH 5.5

B1: 18E2_VLY34H_MG (18E2VL) (antibody, V domains shown)
VH: QLLESGGGLVQPGGSLRLSCAASGFTFSSYVMSWVRQAPGKGLEWVSSIYHDGSHTYYADFVKGRFTISRDNSKNTLYLQMNSLRAEDTAVYYCAKGTSYSGSYYYTDPFFGSWGQGTLVTVSS
VL: SSELTQDPAVSVALGQTVRITCQGDRLGSRYIHWYQQKPGQAPVLVIYDDDRRPSGIPDRFSGSSSGNTASLTITGAQAEDEADYYCQSADSSGNPVFGGGTQLTVL
For B1, the IC50 (human IgE [1]) was 6.06 nM, the EC50 (human IgE [2]) was 0.0269 µg/mL and 0.0323 µg/mL and the EC50 (human IgE [3]) was 0.02 µg/mL and 0.0163 µg/mL.

B2: 18E2VLHis MG hIgG1-ABDEG (antibody, V domains shown)
VH: QLLESGGGLVQPGGSLRLSCAASGFTFSSYVMSWVRQAPGKGLEWVSSIYHDGSHTYYADFVKGRFTISRDNSKNTLYLQMNSLRAEDTAVYYCAKGTSYSGSYYYTDPFFGSWGQGTLVTVSS
VL: SSELTQDPAVSVALGQTVRITCQGDRLGSRYIHWYQQKPGQAPVLVIYDDDRRPSGIPDRFSGSSSGNTASLTITGAQAEDEADYYCQSADSSGNPVFGGGTQLTVL
With B2 the Kd (human IgE [4]) was 5.91 nM and the Kd (human IgE [5]) was 205 nM.

B3: OMA VH15-VL3 (antibody, V domains shown)
VH: EVQLVESGGGLVQPGGSLRLSCAVSGYSITSGHRWEWIRQAPGKGLEWVASIHYDGSTNYNPSVKGRITISRDDSKNTFYLQMNSLRAEDTAVYYCARATHYFGHWHFAVWGQGTLVTVSS
VL: DIQLTQSPSSLSASVGDRVTITCRASQSVDYDGDSYMNWYQQKPGKAPKLLIEWGSYLRSGVPSRFSGSGSGTDFTLTISSLQPEDFATYYCQQNAEDPYTFGQGTKVEIK
Binder B3 has a Kd (human IgE [6]) of 0.0874 pM.

B4: 13E4 (antibody, V domains shown)
VH: ELQLVESGGGLVQPGGSLRLSCAASGFTFSSYVMSWVRQAPGKGLEWVSSIYHDGSHTYYADFVKGRFTISRDNAKNTLYLQMNSLKSEDTAVYYCASGTSYSGSYYYTDPFFGSWGQGTQVTVSS
VL: HSAVTQPSALSVTLGQTAKITCQGGSLGSNYAYWYQQKPGQAPVLVIYDDDSRPSGIPERFSGSSSGGTATLTISGAQAEDEGDYYCQSADSNGNAVFGGGTHLTVL
B4 showed an IC50 (human IgE [7]) of 2.3 µg/mL, an IC50 (human IgE [8]) of 10.3 nM and an IC50 (human IgE [9]) of 1.54 nM. For the same binder, the IC50 (human IgE [10]) was 12.9 nM, the IC50 (human IgE [11]) was 2.5 µg/mL and the IC50 (human IgE [12]) was 1.62 nM. The IC50 (human IgE [13]) was 0.0114 µg/mL and the IC50 (human IgE [14]) was 0.00682 µg/mL.

B5: 13E4-hIgG1-ABDEG (antibody, V domains shown)
VH: ELQLVESGGGLVQPGGSLRLSCAASGFTFSSYVMSWVRQAPGKGLEWVSSIYHDGSHTYYADFVKGRFTISRDNAKNTLYLQMNSLKSEDTAVYYCASGTSYSGSYYYTDPFFGSWGQGTQVTVSS
VL: HSAVTQPSALSVTLGQTAKITCQGGSLGSNYAYWYQQKPGQAPVLVIYDDDSRPSGIPERFSGSSSGGTATLTISGAQAEDEGDYYCQSADSNGNAVFGGGTHLTVL
With B5 the IC50 (human IgE [7]) was 3 µg/mL, the IC50 (human IgE [11]) was 3.2 µg/mL and the IC50 (human IgE [13]) was 0.0106 µg/mL. It also gave an IC50 (human IgE [14]) of 0.0065 µg/mL.

B6: 18E2_VH_S35H_VL_Y34H (18E2His2) (antibody, V domains shown)
VH: QLQLVESGGGLVQPGGSLRLSCAASGFTFSSYVMHWVRQAPGKGLEWVSSIYHDGSHTYYADFVKGRFTISRDNAKNTLYLQMNSLKSEDTAVYYCASGTSYSGSYYYTDPFFGSWGQGTQVTVSS
VL: NFMLTQPSALSVTLGQTARITCQGDRLGSRYIHWYQQKPPQAPVLVIHDDDRRPSGIPERFSGSSSGGTATLTISGAQAEDDGDYYCQSADSSGNPVFGGGTHLTVL
Work on B6 yielded an IC50 (human IgE [15]) of 1.56 µg/mL, an IC50 (human IgE [7]) of 6 µg/mL and an IC50 (human IgE [16]) of 9.86 µg/mL. The IC50 (human IgE [11]) was 6310 µg/mL, the IC50 (human IgE [13]) was 77.2 µg/mL and the IC50 (human IgE [14]) was 2.48 µg/mL.

B7: 18E2His2-hIgG1-ABDEG (antibody, V domains shown)
VH: QLQLVESGGGLVQPGGSLRLSCAASGFTFSSYVMHWVRQAPGKGLEWVSSIYHDGSHTYYADFVKGRFTISRDNAKNTLYLQMNSLKSEDTAVYYCASGTSYSGSYYYTDPFFGSWGQGTQVTVSS
VL: NFMLTQPSALSVTLGQTARITCQGDRLGSRYIHWYQQKPPQAPVLVIHDDDRRPSGIPERFSGSSSGGTATLTISGAQAEDDGDYYCQSADSSGNPVFGGGTHLTVL
B7 was tested, and the IC50 (human IgE [7]) was 5.8 µg/mL, the IC50 (human IgE [11]) was 7320 µg/mL and the IC50 (human IgE [13]) was 26.6 µg/mL. It also gave an IC50 (human IgE [14]) of 1.49 µg/mL.

B8: VL18B9_Y49H (18B9His) (antibody, V domains shown)
VH: QVQLVESGGGLVQPGGSLRLSCAASGFTFSSYVMSWVRQAPGKGLEWVSSIYSDGSHTYYADSVKGRFTISRDNAKNTLYLQMNSLKSEDTAVYYCAKNLEHYSGSYYYTDPRYDYWGQGTQVTVSS
VL: SSALTQPSALSVTLGQTAKITCQGGSLGSSYVHWYQQKPGQAPVLVIHDGDSRPSGIPERFSGSSSGGTATLTISGAQAEDEDDYYCQSADSSGNAVFGGGTHLTVL
B8 showed an IC50 (human IgE [15]) of 0.749 µg/mL, an IC50 (human IgE [7]) of 2.7 µg/mL and an IC50 (human IgE [16]) of 4.06 µg/mL. It also gave an IC50 (human IgE [11]) of 58.5 µg/mL, an IC50 (human IgE [13]) of 3.02 µg/mL and an IC50 (human IgE [14]) of 0.19 µg/mL.

B9: 18B9His-hIgG1-ABDEG (antibody, V domains shown)
VH: QVQLVESGGGLVQPGGSLRLSCAASGFTFSSYVMSWVRQAPGKGLEWVSSIYSDGSHTYYADSVKGRFTISRDNAKNTLYLQMNSLKSEDTAVYYCAKNLEHYSGSYYYTDPRYDYWGQGTQVTVSS
VL: SSALTQPSALSVTLGQTAKITCQGGSLGSSYVHWYQQKPGQAPVLVIHDGDSRPSGIPERFSGSSSGGTATLTISGAQAEDEDDYYCQSADSSGNAVFGGGTHLTVL
With B9 the IC50 (human IgE [7]) was 2.9 µg/mL, the IC50 (human IgE [11]) was 52.9 µg/mL and the IC50 (human IgE [13]) was 2.55 µg/mL. The IC50 (human IgE [14]) was 0.13 µg/mL.
